Data on 17 molecules can be found in patent publication US20170165373A1 (Amgen, published 2017).

The target in assay [1] is T1, human BCMA (huBCMA), full length, on cells (human, UniProt Q02223 1-184).
T1 chain: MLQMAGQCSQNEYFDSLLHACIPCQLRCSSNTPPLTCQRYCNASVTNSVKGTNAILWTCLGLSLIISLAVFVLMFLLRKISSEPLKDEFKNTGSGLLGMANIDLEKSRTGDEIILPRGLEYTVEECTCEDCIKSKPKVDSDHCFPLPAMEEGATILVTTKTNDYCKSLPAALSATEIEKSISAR
The experiment in a line: cell-based or functional assay.

Assay [2] deals with T1, human BCMA (huBCMA), full length, on …. The experiment in a line: cell-based or functional assay.
Assay [3] addresses T2, cynomolgus BCMA, on transiently transfected 293T cells (cynomolgus (Macaca fascicularis), UniProt Q02223 1-184 (human entry)).
T2 construct: also called cyno BCMA
Nature of the assay: FACS.

In assay [4] the target is T1, human BCMA (huBCMA), full length, on …. The experiment in a line: FACS.
Assay [5] deals with T3, TACI, full length, on transiently transfected cells (human, UniProt O14836 1-293).
T3 construct: whole, on cells; also called huTACI
T3 sequence (looked up): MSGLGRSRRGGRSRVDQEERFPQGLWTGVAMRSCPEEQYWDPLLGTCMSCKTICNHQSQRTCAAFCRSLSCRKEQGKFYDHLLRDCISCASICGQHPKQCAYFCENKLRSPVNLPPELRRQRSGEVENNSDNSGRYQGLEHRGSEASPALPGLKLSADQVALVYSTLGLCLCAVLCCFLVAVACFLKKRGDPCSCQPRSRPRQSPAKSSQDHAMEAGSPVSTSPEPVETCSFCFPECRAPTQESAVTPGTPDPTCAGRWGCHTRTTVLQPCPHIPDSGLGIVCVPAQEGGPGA
The experiment in a line: FACS.

The target of assay [6] is T2, cynomolgus BCMA, on transiently …. The experiment in a line: FACS O/N.
The target in assay [7] is T1, human BCMA (huBCMA), full length, on …. Nature of the assay: APRIL blocking FACS. The arrangement: concentration or dose not given beside the values.
Assay [8] shares this target. The experiment in a line: FACS, H929 cells.

T2 sequence (Q02223 other isoform, or with tags, fused parts or gaps): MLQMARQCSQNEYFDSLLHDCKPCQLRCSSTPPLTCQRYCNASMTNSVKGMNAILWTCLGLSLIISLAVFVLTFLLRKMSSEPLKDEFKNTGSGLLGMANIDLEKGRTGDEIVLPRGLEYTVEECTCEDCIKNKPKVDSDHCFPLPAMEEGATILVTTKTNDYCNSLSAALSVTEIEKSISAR

B1: 1E1-PEG4-Mal-DM4 (antibody drug conjugate) (other)
VH: QVQLVQSGAEVKKPGASVKVSCKASGYTFTGHYIHWVRQAPGQGLEWMGWIYPNSGGTNYAQKFQGRVTMTRDTSISTAYMELSRLRSDDSAVYYCAREGMVTGDYYYYRMDVWGQGTTVIVSS
VL: QPVLTQPPSASASLGASVTLTCSLSSGYSNYKVDWYQQRPGKGPRFVMRVGIGGIVGSKGDGIPDRFSVLGSGLNRYLTIKNIQEEDESDFHCGADHGSGNNFVYVFGTGTKVTVLG
modifications: antibody carries DM4 through the PEG4-Mal linker; sites not stated
Take B1: the “cell viability IC50 (CellTiter-Glo, 96 h), H929 cells” value in assay [1] was determined as 0.68 nM.

B2: 1E1-MCC-DM1 (antibody drug conjugate) (other)
VH: QVQLVQSGAEVKKPGASVKVSCKASGYTFTGHYIHWVRQAPGQGLEWMGWIYPNSGGTNYAQKFQGRVTMTRDTSISTAYMELSRLRSDDSAVYYCAREGMVTGDYYYYRMDVWGQGTTVIVSS
VL: QPVLTQPPSASASLGASVTLTCSLSSGYSNYKVDWYQQRPGKGPRFVMRVGIGGIVGSKGDGIPDRFSVLGSGLNRYLTIKNIQEEDESDFHCGADHGSGNNFVYVFGTGTKVTVLG
modifications: antibody carries DM1 through the MCC linker; sites not stated
Consider B2, for which, in assay [1], the “cell viability IC50 (CellTiter-Glo, 96 h), H929 cells” value was 0.63 nM.

B3: 2A1 Covariance 4 (2A1_D84N + C107T) (antibody, human IgG1, lambda, V domains shown)
VH: EVQLVESGGGLVKPGRSLRLSCTASGFTFGDYALSWFRQAPGKGLEWVGVSRSKAYGGTTDYAASVKGRFTISRDNSKSFAYLQMNSLKTEDTAVYYCTSSGYSSGWTPFDYWGQGTLVTVSS
VL: not shown
With B3, the “ADCC EC50” value in assay [2] turned out to be 0.028 µg/mL.

B4: 2A1 Covariance 12 (2A1_T24A + F44V + F88T + C107T) (antibody, human IgG1, lambda, V domains shown)
VH: EVQLVESGGGLVKPGRSLRLSCAASGFTFGDYALSWVRQAPGKGLEWVGVSRSKAYGGTTDYAASVKGRFTISRDDSKSTAYLQMNSLKTEDTAVYYCTSSGYSSGWTPFDYWGQGTLVTVSS
VL: not shown
As to B4, the “ADCC EC50” value in assay [2] is 0.111 µg/mL.

B5: 2A1 Covariance 7 (2A1_S108K + C107T) (antibody, human IgG1, lambda, V domains shown)
VH: EVQLVESGGGLVKPGRSLRLSCTASGFTFGDYALSWFRQAPGKGLEWVGVSRSKAYGGTTDYAASVKGRFTISRDDSKSFAYLQMNSLKTEDTAVYYCTKSGYSSGWTPFDYWGQGTLVTVSS
VL: not shown
With B5, the “ADCC EC50” value in assay [2] was found to be 0.0191 µg/mL.

B6: 2A1 Covariance 14 (2A1_T24A + F44V + F88T + C107A) (antibody, human IgG1, lambda, V domains shown)
VH: EVQLVESGGGLVKPGRSLRLSCAASGFTFGDYALSWVRQAPGKGLEWVGVSRSKAYGGTTDYAASVKGRFTISRDDSKSTAYLQMNSLKTEDTAVYYCASSGYSSGWTPFDYWGQGTLVTVSS
VL: not shown
As to B6, the “ADCC EC50” value in assay [2] worked out at 0.0417 µg/mL.

B7: 2A1 Covariance 11 (2A1_F44V + C107A + S108K) (antibody, human IgG1, lambda, V domains shown)
VH: EVQLVESGGGLVKPGRSLRLSCTASGFTFGDYALSWVRQAPGKGLEWVGVSRSKAYGGTTDYAASVKGRFTISRDDSKSFAYLQMNSLKTEDTAVYYCAKSGYSSGWTPFDYWGQGTLVTVSS
VL: not shown
Regarding B7, the “ADCC EC50” value in assay [2] was 0.364 µg/mL.

B8: 2A1 Covariance 5 (2A1_F88T + C107T) (antibody, human IgG1, lambda, V domains shown)
VH: EVQLVESGGGLVKPGRSLRLSCTASGFTFGDYALSWFRQAPGKGLEWVGVSRSKAYGGTTDYAASVKGRFTISRDDSKSTAYLQMNSLKTEDTAVYYCTSSGYSSGWTPFDYWGQGTLVTVSS
VL: not shown
Turning to B8, the “ADCC EC50” value in assay [2] came to 0.016 µg/mL.

B9: 2A1 Covariance 6 (2A1_C107A) (antibody, human IgG1, lambda, V domains shown)
VH: EVQLVESGGGLVKPGRSLRLSCTASGFTFGDYALSWFRQAPGKGLEWVGVSRSKAYGGTTDYAASVKGRFTISRDDSKSFAYLQMNSLKTEDTAVYYCASSGYSSGWTPFDYWGQGTLVTVSS
VL: not shown
As for B9, the “ADCC EC50” value in assay [2] is 0.0169 µg/mL.

B10: 2A1 Covariance 13 (2A1_F44V + F88T + C107A) (antibody, human IgG1, lambda, V domains shown)
VH: EVQLVESGGGLVKPGRSLRLSCTASGFTFGDYALSWVRQAPGKGLEWVGVSRSKAYGGTTDYAASVKGRFTISRDDSKSTAYLQMNSLKTEDTAVYYCASSGYSSGWTPFDYWGQGTLVTVSS
VL: not shown
B10: in assay [2], the “ADCC EC50” value was 0.0327 µg/mL.

B11: 32H3 (antibody, V domains shown)
VH: EVQLLESGGGLVQPGGSLRLSCAASGFTFSSYAMSWVRQAPGKGLKWVSAISGGAGNTYYADSVKGRFTISRDISKSTVYLQMTSLRAEDTAIYYCAKDGVGTTGGYFYYHGMDVWGQGTTVTVSS
VL: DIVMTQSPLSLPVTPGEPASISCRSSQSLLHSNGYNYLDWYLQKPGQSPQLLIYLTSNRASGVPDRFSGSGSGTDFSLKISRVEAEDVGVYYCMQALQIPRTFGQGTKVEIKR
notes: Tested as purified hybridoma IgG2 or IgG4; also called Ab-12; 32H3.1
In assay [3], B11 registered an MFI of 51200. This molecule had an MFI in assay [4] of 97700. Also, in assay [5], the MFI stood at 1360 and the binding result is given as “no binding”. Besides, the MFI in assay [6] is 122. In assay [7], the “% Inhibition n=1” value was 20%, the “% Inhibition n=2” value was 47% and the “Avg. % Inhibition” value worked out at 33%.

B12: 35D2 (antibody, V domains shown)
VH: EVQLLESGGALVQPGGSLRLSCAASGFTFSSYAMNWVRQAPGKGLEWVSAISVGGGTYYADSVKGRFTISRDNSKNTLYLHVNSLRAEDTAVYYCAKDQVTMVRGVWYYYGLDVWGQGTTVTVSS
VL: VIVLIQSPLSLPVTPGEPASISCRSSQSLLHSNGNNYLDWYLQKPGQSPHLLISLGSNRTSGVPDRFSGSGSGTDFTLKISRVEAEDVGFYYCMQALQPPRRFGQGTKLEIKR
notes: also called Ab-15; 35D2.1
Molecule B12 showed an MFI in assay [3] of 198000. Besides, the MFI in assay [4] came to 129000. For the same molecule, in assay [5], the MFI turned out to be 506 and the binding result is recorded as “no binding”. The molecule further registered an MFI in assay [6] of 152. For the same molecule, in assay [7], the “% Inhibition n=1” value turned out to be 57%, the “% Inhibition n=2” value turned out to be 82% and the “Avg. % Inhibition” value was determined as 70%.

B13: 33C7 (antibody, V domains shown)
VH: EVQLLESGGALVQPGGSLRLSCAASGFTFSSYAMNWVRQAPGKGLEWVSAISVGGDTYYADSVKGRFTISRDNSKNTLYLHVNSLSAEDSAVYYCAKDQVTLVRGVWYYYGLDVWGQGTTVTVSS
VL: VIVLIQSPLSLPVTPGEPASISCRSSQSLLHSNGNNYLDWYLQKPGQSPHLLISLGSNRTSGVPDRFSGSGSGTDFTLKISRVEAEDVGFYYCMQALQPPRRFGQGTKLEIKR
notes: Tested as purified hybridoma IgG2 or IgG4; also called Ab-11; 33C7_HC#1
B13 yielded an MFI in assay [3] of 238000. The same molecule yielded an MFI in assay [4] of 132000. For the same molecule, in assay [5], the MFI is 1890 and the binding result was “no binding”. This molecule had an MFI in assay [6] of 109. Further, in assay [7], the “% Inhibition n=1” value was 68%, the “% Inhibition n=2” value came out at 88% and the “Avg. % Inhibition” value was determined as 78%.

B14: 32B5 (N69Q) (antibody, human IgG1, kappa, V domains shown)
VH: EVQLLESGGALVQPGGSLRLSCAASGFTFSSYAMNWVRQAPGKGLEWVSAISVGGDTYYADSVKGRFTISRDNSKNTLYLHVNSLSAEDSAVYYCAKDQVTLVRGVWYYYGLDVWGQGTTVTVSS
VL: VIVLIQSPLSLPVTPGEPASISCRSSQSLLHSNGNNYLDWYLQKPGQSPHLLISLGSQRTSGVPDRFSGSGSGTDFTLKISRVEAEDVGFYYCMQALQPPRRFGQGTKLEIKR
notes: also called 32B5 (LC: N69Q); P70169.3
As for B14, in assay [8], the binding result is given as “binds”.

B15: 29C12 (antibody, V domains shown)
VH: EVQLLESGGALVQPGGSLRLSCAASGFTFSSYAMNWVRQAPGKGLEWVSAISVGGDTYYADSVKGRFTISRDNSKNTLYLQMNSLRAEDTAVYYCAKDQVTMVRGVWYYYGLDVWGQGTTVTVSS
VL: DIVMIQSPLSLPVTPGEPASISCRSSQSLLHSNGNNYLDWYLQKPGQSPHLLISLGSNRTSGVPDRFSGSGSGTDFTLKISRVEAEDVGVYYCMQALQPPRRFGQGTKLEIKR
notes: also called Ab-8; 29C12.1
Consider B15, for which the MFI is 97300 in assay [3], 82600 in assay [4], 256 in assay [5] and 110 in assay [6]. Besides, in assay [5], the binding result was “no binding”. In addition, the “% Inhibition n=1” value in assay [7] worked out at 30%. In addition, the “% Inhibition n=2” value in assay [7] was found to be 62%. The “Avg. % Inhibition” value in assay [7] is 46%.

B16: 37B2 (antibody, V domains shown)
VH: EVQLLESGGALVQPGGSLRLSCAASGFTFSNYAMNWVRQAPGKGLEWVSAISVGGDTYYADSVKGRFTISRDNSKNTLYLHVNSLSAEDSAVYYCAKDQVTLVRGVWYYYGLDVWGQGTTVTVSS
VL: VIVLIQSPLSLPVTPGEPASISCRSSQSLLHSNGNNYLDWYLQKPGQSPHLLISLGSNRTSGVPDRFSGSGSGTDFTLKISRVEAEDVGFYYCMQALQPPRRFGQGTKLEIKR
notes: Tested as purified hybridoma IgG2 or IgG4; also called Ab-16; 37B2.1
The molecule B16 registered an MFI in assay [3] of 136000. In assay [4], this molecule gave an MFI of 83700. Besides, in assay [5], the MFI turned out to be 1040 and the binding result is recorded as “no binding”. Further, in assay [6], the MFI worked out at 104. In addition, in assay [7], the “% Inhibition n=1” value turned out to be 37%, the “% Inhibition n=2” value amounted to 58% and the “Avg. % Inhibition” value amounted to 48%.

B17: 30E1 (antibody, V domains shown)
VH: EVQLLESGGGLVQPGGSLRLSCAASGFTFSSHAMSWVRQAPGKGLEWVSAISGGDGNTYYADSVKGRFAISRDNSKNVVYLQMNSLRAEDTAVYFCAKDLVGVVAGYYYYFGMDVWGQGTTVTVSS
VL: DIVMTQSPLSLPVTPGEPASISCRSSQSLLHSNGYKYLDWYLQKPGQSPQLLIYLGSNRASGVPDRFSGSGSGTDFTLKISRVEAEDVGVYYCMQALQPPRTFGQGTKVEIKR
notes: Tested as purified hybridoma IgG2 or IgG4; also called Ab-9; 30E1.1
B17 came in with an MFI in assay [3] of 78500. The molecule further displayed an MFI in assay [4] of 109000. Also, in assay [5], the MFI stood at 555 and the binding result was “no binding”. Also, the MFI in assay [6] worked out at 130. In assay [7], the “% Inhibition n=1” value was 31%, the “% Inhibition n=2” value came out at 46% and the “Avg. % Inhibition” value was 38%.
